In patent publication US20220323563A1:
Like-named read-outs stand apart in the source and are kept apart here.

What was measured:
[1] = molecular target: Fcγ fragment of human IgG (human); assay: BLI, Ni-NTA sensor, SpA immobilised, Fc fragment of human IgG in solution
[2] = molecular target: Fcγ fragment of human IgG (human)
[3] = molecular target: F(ab)2 fragment of human IgG (human)

Row | Substance | Ka [1] [M⁻¹] | human IgE affinity (human IgE) | Ka [2] [M⁻¹] | Ka [3] [M⁻¹]
1 | SpA (wild-type protein A, recombinant five IgBDs) (from UniProt P02976 37-327) | 5.17e+07 |  |  | 
2 | SpAQ9,10K/G29F/D36,37A (from UniProt P02976 37-327) |  | 2.02e-05 |  | 
3 | SpAQ9,10K/S33E (from UniProt P02976 37-327) |  |  | 32.7 | 41.2
4 | SpAQ9,10K/S33T (from UniProt P02976 37-327) |  |  | 39.9 | 43.5
